Measured values taken from patent publication US7439329B2, “GEF-H1b: biomarkers, complexes assays and therapeutic uses thereof” (Sugen, Inc., priority 2002, dated 2008).
Residue numbers refer to the chain shown, from its start. Numbers in names are those of the source.

Key:
GEF-H1S [1] = biological target: T1, GEF-H1S (Homo sapiens, UniProt Q92974, INS962GETLAETWTR); assay: Pull-down of GEF-H1 with PAK4 domains and biotinylated PAK4 peptides; assay type: binding; conditions: biotinylated PAK4 peptides linked to streptavidin beads
T1 sequence (Q92974 with tags, fused parts or gaps): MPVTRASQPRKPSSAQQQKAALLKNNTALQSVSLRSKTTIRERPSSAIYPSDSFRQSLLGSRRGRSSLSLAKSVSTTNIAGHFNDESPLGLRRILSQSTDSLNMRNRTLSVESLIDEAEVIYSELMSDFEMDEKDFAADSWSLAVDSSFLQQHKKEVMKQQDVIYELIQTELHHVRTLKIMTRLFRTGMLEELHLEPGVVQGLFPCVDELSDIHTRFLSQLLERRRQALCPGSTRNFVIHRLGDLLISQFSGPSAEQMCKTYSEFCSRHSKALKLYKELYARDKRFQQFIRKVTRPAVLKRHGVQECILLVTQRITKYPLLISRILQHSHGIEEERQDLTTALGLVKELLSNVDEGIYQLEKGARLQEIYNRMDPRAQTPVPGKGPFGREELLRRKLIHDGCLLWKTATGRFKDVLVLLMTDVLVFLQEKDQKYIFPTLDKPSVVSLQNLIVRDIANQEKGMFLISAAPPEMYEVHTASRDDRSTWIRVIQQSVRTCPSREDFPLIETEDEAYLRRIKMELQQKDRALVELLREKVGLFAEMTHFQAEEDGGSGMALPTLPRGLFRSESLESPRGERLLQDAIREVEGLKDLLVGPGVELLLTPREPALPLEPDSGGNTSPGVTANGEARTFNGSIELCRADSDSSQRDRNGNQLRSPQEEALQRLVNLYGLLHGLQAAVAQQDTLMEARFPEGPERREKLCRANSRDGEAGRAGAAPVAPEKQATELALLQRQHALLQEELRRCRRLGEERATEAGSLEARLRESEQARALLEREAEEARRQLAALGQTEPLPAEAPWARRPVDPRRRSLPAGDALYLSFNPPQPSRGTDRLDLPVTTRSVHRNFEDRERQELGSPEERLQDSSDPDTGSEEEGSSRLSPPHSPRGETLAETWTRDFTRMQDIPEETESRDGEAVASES
Method: (§1) FIG. 1: (SEQ ID NOs 32-34 respectively in order of appearance) Direct binding of GEF-H1 to PAK4. Lysates were prepared from 293T cells over expressing (a) myc tagged PAK4 alleles or subdomains and incubated with GST, GST-GEF-H1 (787-921) and GST-Maguin-like bound to Glutathione beads (1,2,3,4 bead designation) or (b) GFP-GEF-H1 and incubated with PAK4 biotinylated peptides (291-355) and (276-324) linked to streptavidin beads. An equivalent amount of beads and excess lysates (500 ug) were used. Eluates of beads and total lysates were analysed by SDS-PAGE and immunoblotted with myc or GEF-H1 antiserum; (c) represents a PAK4 gene schematic outlining the regions of PAK4 used to identify the GEF-H1 interaction domain (GID). d, alignment of the GID defined by the minimal binding region of PAK4 with PAK5 and PAK6.
(§2) To confirm the in vitro interaction of GEF-H1S with PAK4, bacterially expressed GST-fusion proteins were generated with the identical sequences isolated by phage display, encoding either amino acids 763-921 of GEF-H1S or amino acids 385-555 from the Maguin-2-like protein. These fusion proteins were bound to glutathione beads and utilized in binding assays with 293T lysates expressing exogenous PAK4.
(§3) Biotinylated peptides derived from the N-terminal region of PAK4 sequence were used to further map the GEF-H1 binding site. […]

GEF-H1S [2] = assay: Co-transfection of GEF-H1S and PAK4 alleles, Western blot with phospho-specific GEF-H1 antibodies; assay type: cell-based, human
Method: To confirm that GEF-H1S phosphorylation by PAK4 occurs at these sites in vivo, co-transfection assays were performed and analyzed phosphorylation of GEF-H1 by use of a phospho-specific antibody directed against phospho-serine 810. This antibody is specific for GEF-H1 that is phosphorylated on Ser 810. […] Expression of the kinase-dead PAK4 is also able to inhibit endogenous PAK4 basal phosphorylation of GEF-H1S on Ser 810.
In this experiment GEF-H1S expression vector was pRSV/Rc and the PAK4 expression vector was pcDNA. Lysates were prepared from the transfected 293T cells and analyzed by Western Blot using the anti-1009 reagent. […] These phosphospecific antibodies can be used to detect PAK4 activity in tumors by virtue of its specific phosphorylation of GEF-H1.

GEF-H1S [3] = biological target: T2, GEF-H1S (Homo sapiens, UniProt Q92974, INS962GETLAETWTR); assay: Pull-down of GEF-H1 with PAK4 domains and biotinylated PAK4 peptides; assay type: binding; conditions: PAK4 domain expressed in 293T lysate; GST-GEF-H1S (aa763-921) on glutathione beads
T2 sequence (Q92974 with tags, fused parts or gaps): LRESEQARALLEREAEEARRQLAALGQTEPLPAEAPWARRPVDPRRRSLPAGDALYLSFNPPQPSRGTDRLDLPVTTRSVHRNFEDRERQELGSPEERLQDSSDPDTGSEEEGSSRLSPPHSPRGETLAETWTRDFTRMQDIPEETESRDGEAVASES
Method: as §1, §2, §3

[4] = co-expression with GEF-H1S in mammalian (293T) cells, anti-1009 Western blot, relative to basal phosphorylation

B1: amino acids 291-355: biotinylated PAK4 peptide covering a more C-terminal region (peptide, UniProt O96013 291-355, looked up, fragment)
chain: SPQREPQRVSHEQFRAALQLVVDPGDPRSYLDNFIKIGEGSTGIVCIATVRSSGKLVAVKKMDLR
modifications: biotin
notes: biotinylated PAK4 peptide covering a more C-terminal region
For B1, the “interaction with GEF-H1S” value (GEF-H1S [1]) was “did not”.

B2: S474E: activated PAK4 mutant (protein)
chain: MFGKRKKRVEISAPSNFEHRVHTGFDQHEQKFTGLPRQWQSLIEESARRPKPLVDPACITSIQPGAPKTIVRGSKGAKDGALTLLLDEFENMSVTRSNSLRRDSPPPPARARQENGMPEEPATTARGGPGKAGSRGRFAGHSEAGGGSGDRRRAGPEKRPKSSREGSGGPQESSRDKRPLSGPDVGTPQPAGLASGAKLAAGRPFNTYPRADTDHPSRGAQGEPHDVAPNGPSAGGLAIPQSSSSSSRPPTRARGAPSPGVLGPHASEPQLAPPACTPAAPAVPGPPGPRSPQREPQRVSHEQFRAALQLVVDPGDPRSYLDNFIKIGEGSTGIVCIATVRSSGKLVAVKKMDLRKQQRRELLFNEVVIMRDYQHENVVEMYNSYLVGDELWVVMEFLEGGALTDIVTHTRMNEEQIAAVCLAVLQALSVLHAQGVIHRDIKSDSILLTHDGRVKLSDFGFCAQVSKEVPRRKELVGTPYWMAPELISRLPYGPEVDIWSLGIMVIEMVDGEPPYFNEPPLKAMKMIRDNLPPRLKNLHKVSPSLKGFLDRLLVRDPAQRATAAELLKHPFLAKAGPPASIVPLMRQNRTR
B2 was tested, and the “phosphorylation of GEF-H1S on Ser 810” value (GEF-H1S [2]; [4]) was “marked increase”, the “phosphorylation of GEF-H1S on Ser 810” value (GEF-H1S [2]; co-expression with GEF-H1S in mammalian (293T) cells, anti-1009 Western blot, relative to basal phosphorylation, listed as activated PAK4) was “enhanced” and the “phosphorylation of GEF-H1S on Ser 67” value (GEF-H1S [2]; co-transfection with GEF-H1S, phospho-specific antibodies against Ser 67) was “stimulated phosphorylation”.

B3: PAK4 kinase dead K350,351A: kinase inactive PAK4 mutant (protein, UniProt O96013 1-591, looked up, variant K350A K351A)
Serine/threonine-protein …: B2 chain with K350A, K351A, E474S
With B3 the “phosphorylation of GEF-H1S on Ser 810” value (GEF-H1S [2]; [4]) was “marked decrease” and the “phosphorylation of GEF-H1S on Ser 810” value (GEF-H1S [2]; co-expression with GEF-H1S in mammalian (293T) cells, anti-1009 Western blot, relative to basal phosphorylation, listed as kinase-dead PAK4) was “inhibit”.

B4: wild type PAK4 (1-591): wild type p-21-activated kinase 4 expressed from pcDNA (protein)
chain: B2 chain with E474S
For B4, the “phosphorylation of GEF-H1S on Ser 810” value (GEF-H1S [2]; co-expressed with Cdc42) was “enhanced” and the “phosphorylation of GEF-H1S on Ser 810” value (GEF-H1S [2]; [4]) was “marked increase”.

B5: amino acids 1-309: amino-terminal regulatory domain of PAK4 alone (protein, UniProt O96013 1-309, looked up, fragment)
chain: MFGKRKKRVEISAPSNFEHRVHTGFDQHEQKFTGLPRQWQSLIEESARRPKPLVDPACITSIQPGAPKTIVRGSKGAKDGALTLLLDEFENMSVTRSNSLRRDSPPPPARARQENGMPEEPATTARGGPGKAGSRGRFAGHSEAGGGSGDRRRAGPEKRPKSSREGSGGPQESSRDKRPLSGPDVGTPQPAGLASGAKLAAGRPFNTYPRADTDHPSRGAQGEPHDVAPNGPSAGGLAIPQSSSSSSRPPTRARGAPSPGVLGPHASEPQLAPPACTPAAPAVPGPPGPRSPQREPQRVSHEQFRAALQ
B5 was tested, and the “interaction with GEF-H1S” value (GEF-H1S [3]) was “did not stably interact”.
